The values below come from patent US20260022175A1 (Chugai, published 2026).

Assay [1] addresses T1, human FcγRIIb extracellular domain with C-terminal His-tag (human, UniProt P31994 43-217).
T1 construct: extracellular domain; also called hFcγR IIb
T1 sequence (looked up): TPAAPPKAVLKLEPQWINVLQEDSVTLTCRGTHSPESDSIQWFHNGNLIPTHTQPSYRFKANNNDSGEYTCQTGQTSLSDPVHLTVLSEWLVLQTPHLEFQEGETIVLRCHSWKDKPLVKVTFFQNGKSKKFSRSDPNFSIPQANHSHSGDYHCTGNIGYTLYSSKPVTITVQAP
Nature of the assay: SPR; binding amount divided by that of 04H1389-G1m/04L1615-k0MT.

The target in assay [2] is T2, human FcγRIa extracellular domain with C-terminal His-tag (human, UniProt P12314 16-292).
T2 construct: extracellular domain; also called hFcγR Ia; hFcγRIa
Nature of the assay: SPR; KD of 04H1389-G1m/04L1615-k0MT divided by KD of variant.

Assay [3] addresses T3, human FcγRIIa H allotype extracellular domain with C-terminal His-tag (human, UniProt P12318 34-217).
T3 construct: extracellular domain; also called hFcγR IIa H
T3 sequence (looked up): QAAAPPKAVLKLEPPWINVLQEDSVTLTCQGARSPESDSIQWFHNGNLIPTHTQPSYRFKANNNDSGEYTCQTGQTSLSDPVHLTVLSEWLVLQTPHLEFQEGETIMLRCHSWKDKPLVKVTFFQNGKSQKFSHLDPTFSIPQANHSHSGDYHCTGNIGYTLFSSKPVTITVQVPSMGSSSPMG
The description is as above.

The target in assay [4] is T4, human FcγRIIa R allotype extracellular domain with C-terminal His-tag (human, UniProt P12318 34-217).
T4 construct: extracellular domain; also called hFcγR IIa R
T4 sequence (looked up): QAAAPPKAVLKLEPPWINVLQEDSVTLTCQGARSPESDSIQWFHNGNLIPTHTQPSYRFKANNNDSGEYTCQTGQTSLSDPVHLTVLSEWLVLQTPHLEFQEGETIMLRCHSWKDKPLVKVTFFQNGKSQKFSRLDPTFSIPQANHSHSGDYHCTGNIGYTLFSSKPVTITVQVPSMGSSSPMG
The description is as above.

Assay [5] addresses T5, human FcγRIIIa V allotype extracellular domain with C-terminal His-tag (human, UniProt P08637 17-208).
T5 construct: extracellular domain; also called hFcγR IIIa V
Described as above.

In assay [6] the target is T6, human FcRn (human, UniProt P55899 24-290; P61769 21-119).
T6 construct: Prepared by the method of WO 2010/107110; also called hFcRn
The description is as above.

Assay [7] concerns the target T6, human FcRn. Nature of the assay: SPR Biacore T200, Ab captured via Fab-kappa, pH 6.0, steady state.
Assay [8] has as its target T2, human FcγRIa extracellular domain with …. Briefly: SPR Biacore T200, Ab captured via Fab-kappa, pH 7.4, 25C.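 Further: each FcγR flowed as analyte over the captured antibodies, KD derived by 1:1 Langmuir or steady-state affinity fitting depending on the receptor.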
For assay [9], the target named is T3, human FcγRIIa H allotype extracellular …. Described as above.
The target of assay [10] is T7, human FcγRIIIa F allotype extracellular domain with C-terminal His-tag (human, UniProt P08637 17-208).
T7 construct: extracellular domain; also called hFcγR IIIa F
The assay is described as above.

Assay [11] concerns the target T4, human FcγRIIa R allotype extracellular …. The description is as above.
The target of assay [12] is T5, human FcγRIIIa V allotype extracellular …. The description is as above.
The target of assay [13] is T1, human FcγRIIb extracellular domain with …. Nature of the assay: SPR; FcγRIIb bound amount per unit captured Ab.

T6 sequence (P55899 24-290 limits assumed, chain 1 of 2): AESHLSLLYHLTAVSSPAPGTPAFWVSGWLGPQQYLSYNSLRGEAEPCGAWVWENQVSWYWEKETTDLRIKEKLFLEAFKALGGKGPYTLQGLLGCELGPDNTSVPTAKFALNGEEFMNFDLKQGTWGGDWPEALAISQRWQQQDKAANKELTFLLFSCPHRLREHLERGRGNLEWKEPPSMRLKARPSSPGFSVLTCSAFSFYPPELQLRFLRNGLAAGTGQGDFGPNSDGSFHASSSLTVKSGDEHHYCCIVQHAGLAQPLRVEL
T6 sequence (P61769 21-119 limits assumed, chain 2 of 2): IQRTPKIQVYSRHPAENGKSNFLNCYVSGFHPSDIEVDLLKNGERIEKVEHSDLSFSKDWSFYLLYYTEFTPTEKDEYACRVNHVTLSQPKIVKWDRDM
T7 sequence (P08637 17-208): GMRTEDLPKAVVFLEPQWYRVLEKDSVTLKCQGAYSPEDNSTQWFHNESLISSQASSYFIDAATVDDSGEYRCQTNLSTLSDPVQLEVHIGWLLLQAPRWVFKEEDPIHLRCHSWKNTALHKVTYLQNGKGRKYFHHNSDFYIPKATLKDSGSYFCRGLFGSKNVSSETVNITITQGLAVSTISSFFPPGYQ
T5 sequence (P08637 17-208 F176V): as the sequence (P08637 17-208) above, with F160V counted along it
T2 sequence (P12314 16-292): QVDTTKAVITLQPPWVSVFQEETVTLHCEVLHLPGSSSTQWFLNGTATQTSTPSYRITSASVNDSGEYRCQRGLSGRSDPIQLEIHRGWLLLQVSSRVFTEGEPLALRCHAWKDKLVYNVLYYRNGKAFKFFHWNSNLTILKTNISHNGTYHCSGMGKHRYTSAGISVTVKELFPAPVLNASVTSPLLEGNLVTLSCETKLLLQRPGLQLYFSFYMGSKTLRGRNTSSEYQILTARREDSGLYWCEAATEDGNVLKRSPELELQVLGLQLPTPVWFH

B1: 04H1389-Km481/04L1615-k0MT//04H1389-Hm498/04L1615-k0MT (antibody)
heavy 1: EVQLVESGGGLVKPGGSLRLSCAASGFTFSSKTMNWVRQAPGKGLEWVSSISTQSHYIYYAESVKGRFTISRDNAKNSLYLQMNSLRAEDTAVYYCARYGKREDMLWVFDYWGQGTLVTVSSASTKGPSVFPLAPSSKSTSGGTAALGCLVKDYFPEPVTVSWNSGALTSGVHTFPAVLQSSGLYSLSSVVTVPSSSLGTQTYICNVNHKPSNTKVDKRVEPKSCDKTHTCPPCPAPEFQWGPMVFLFPPKPKDVLMISRTPEVTCVVVDVSDEEPEVKFNWYVDGVEVHNAKTKPREEQYNATYRVVSVLPVLHQDWLNGKEYKCKVSNDALPAPEEKTISKAKGQPREPQVCTLPPSREEMTKNQVSLWCLVKGFYPSDIAVEWESNGQPENNYKTTPPVLDSDGSFFLYSKLTVDKSRWQQGNVFSCSVMHEALHAHTTRKELSLSP
heavy 2: EVQLVESGGGLVKPGGSLRLSCAASGFTFSSKTMNWVRQAPGKGLEWVSSISTQSHYIYYAESVKGRFTISRDNAKNSLYLQMNSLRAEDTAVYYCARYGKREDMLWVFDYWGQGTLVTVSSASTKGPSVFPLAPSSKSTSGGTAALGCLVKDYFPEPVTVSWNSGALTSGVHTFPAVLQSSGLYSLSSVVTVPSSSLGTQTYICNVNHKPSNTKVDKRVEPKSCDKTHTCPPCPAPELLAGPSVFLFPPKPKDVLMISRTPEVTCVVVDVSHEEPEVKFNWYVDGVEVHNAKTKPREEQYNATYRVVSVLPVLHQDWLNGKEYKCKVSNDALPAPEEETISKAKGQPREPQVYTLPPSRCEMTKNQVSLSCAVKGFYPSDIAVEWESNGQPENNYKTTPPVLDSDGSFFLVSKLTVDKSRWQQGNVFSCSVMHEALHAHTTRKELSLSP
light: DIVMTQSPLSLPVTPGEPASISCQGPSTGVGDYNYVHWYQQKPGQAPRLLIYFTSKKPSGVPDRFSGSGSGTDFTLKISRVEAEDVGVYYCQTYAAPLGPMFGQGTKLEIKRTVAAPSVFIFPPSDEQLKSGTASVVCLLNNFYPREAKVQWKVDNALQSGNSQESVTEQDSKDSTYSLSSTLTLSKADYEKHKVYACEVTHQGLSSPVTKSFNRGEC
notes: Heterodimerized antibody with N434A/Y436T/Q438R/S440E
As for B1, the Relative binding amount in assay [1] is 1.9. Also, the “Relative value to KD between G1m and hFcγRs” value in assay [2] stood at 1.1; in assay [3] it was 5; in [4] it was 5.1; in [5], 1470. Besides, the “Relative value to KD between G1m and hFcRn” value with human FcRn [6] is 2.8. In addition, the equilibrium dissociation constant (Kd) came out at 470 nM in the assay with human FcRn [7]; 0.042 nM in assay [8]; 210 nM in assay [9]; 1.4 nM in assay [10]; 290 nM in assay [11]; 0.62 nM in [12]. The same molecule returned a Binding amount in assay [13] of 0.021.

B2: 04H1389-Ks473/04L1615-k0MT//04H1389-Hs482/04L1615-k0MT (antibody)
heavy 1: EVQLVESGGGLVKPGGSLRLSCAASGFTFSSKTMNWVRQAPGKGLEWVSSISTQSHYIYYAESVKGRFTISRDNAKNSLYLQMNSLRAEDTAVYYCARYGKREDMLWVFDYWGQGTLVTVSSASTKGPSVFPLAPSSKSTSGGTAALGCLVKDYFPEPVTVSWNSGALTSGVHTFPAVLQSSGLYSLSSVVTVPSSSLGTQTYICNVNHKPSNTKVDKRVEPKSCDKTHTCPPCPAPEFQWGPMVFLFPPKPKDVLMISRTPEVTCVVVDVSDEEPEVKFNWYVDGVEVHNAKTKPREEQYNATYRVVSVLPVLHQDWLNGKEYKCKVSNDALPAPIEKTISKAKGQPREPQVYTLPPSREEMTKNQVSLWCLVKGFYPSDIAVEWESNGQPENNYKTTPPVLDSDGSFFLYSKLTVDKSRWQQGNVFSCSVMHEALHAHTTRKELSLSP
heavy 2: EVQLVESGGGLVKPGGSLRLSCAASGFTFSSKTMNWVRQAPGKGLEWVSSISTQSHYIYYAESVKGRFTISRDNAKNSLYLQMNSLRAEDTAVYYCARYGKREDMLWVFDYWGQGTLVTVSSASTKGPSVFPLAPSSKSTSGGTAALGCLVKDYFPEPVTVSWNSGALTSGVHTFPAVLQSSGLYSLSSVVTVPSSSLGTQTYICNVNHKPSNTKVDKRVEPKSCDKTHTCPPCPAPELLAGPSVFLFPPKPKDVLMISRTPEVTCVVVDVSHEEPEVKFNWYVDGVEVHNAKTKPREEQYNATYRVVSVLPVLHQDWLNGKEYKCKVSNDALPKPDEETISKAKGQPREPQVYTLPPSREEMTKNQVSLSCAVKGFYPSDIAVEWESNGQPENNYKTTPPVLDSDGSFFLVSKLTVDKSRWQQGNVFSCSVMHEALHAHTTRKELSLSP
light: DIVMTQSPLSLPVTPGEPASISCQGPSTGVGDYNYVHWYQQKPGQAPRLLIYFTSKKPSGVPDRFSGSGSGTDFTLKISRVEAEDVGVYYCQTYAAPLGPMFGQGTKLEIKRTVAAPSVFIFPPSDEQLKSGTASVVCLLNNFYPREAKVQWKVDNALQSGNSQESVTEQDSKDSTYSLSSTLTLSKADYEKHKVYACEVTHQGLSSPVTKSFNRGEC
notes: as for B1
Consider B2, for which the Relative binding amount in assay [1] came to 2.3. For the same molecule, the “Relative value to KD between G1m and hFcγRs” value in assay [2] was 0.9; in assay [3], 14.1; in assay [4], 9; in assay [5], 760. The “Relative value to KD between G1m and hFcRn” value with human FcRn [6] amounted to 2.9. Moreover, the equilibrium dissociation constant (Kd) with human FcRn [7] was found to be 450 nM; in [8] it was 0.051 nM; in [9], 75 nM; in assay [10] it was 2.3 nM; in [11], 160 nM; in assay [12] it was 1.2 nM. The same molecule came in with a Binding amount in assay [13] of 0.026.

B3: 04H1389-Ks462/04L1615-k0MT//04H1389-Hs445/04L1615-k0MT (antibody, human IgG1, kappa)
heavy 1: EVQLVESGGGLVKPGGSLRLSCAASGFTFSSKTMNWVRQAPGKGLEWVSSISTQSHYIYYAESVKGRFTISRDNAKNSLYLQMNSLRAEDTAVYYCARYGKREDMLWVFDYWGQGTLVTVSSASTKGPSVFPLAPSSKSTSGGTAALGCLVKDYFPEPVTVSWNSGALTSGVHTFPAVLQSSGLYSLSSVVTVPSSSLGTQTYICNVNHKPSNTKVDKRVEPKSCDKTHTCPPCPAPEFQWGPMVFLFPPKPKDVLMISRTPEVTCVVVDVSDEEPEVKFNWYVDGVEVHNAKTKPREEQYNATYRVVSVLPVLHQDWLNGKEYKCKVSNDALPAPIEKTISKAKGQPREPQVYTLPPSREEMTKNQVSLWCLVKGFYPSDIAVEWESNGQPENNYKTTPPVLDSDGSFFLYSKLTVDKSRWQQGNVFSCSVMHEALHNHYTQKSLSLSP
heavy 2: EVQLVESGGGLVKPGGSLRLSCAASGFTFSSKTMNWVRQAPGKGLEWVSSISTQSHYIYYAESVKGRFTISRDNAKNSLYLQMNSLRAEDTAVYYCARYGKREDMLWVFDYWGQGTLVTVSSASTKGPSVFPLAPSSKSTSGGTAALGCLVKDYFPEPVTVSWNSGALTSGVHTFPAVLQSSGLYSLSSVVTVPSSSLGTQTYICNVNHKPSNTKVDKRVEPKSCDKTHTCPPCPAPELLAGPSVFLFPPKPKDVLMISRTPEVTCVVVDVSHEEPEVKFNWYVDGVEVHNAKTKPREEQYNATYRVVSVLPVLHQDWLNGKEYKCKVSNDALPKPDEETISKAKGQPREPQVYTLPPSREEMTKNQVSLSCAVKGFYPSDIAVEWESNGQPENNYKTTPPVLDSDGSFFLVSKLTVDKSRWQQGNVFSCSVMHEALHNHYTQKSLSLSP
light: DIVMTQSPLSLPVTPGEPASISCQGPSTGVGDYNYVHWYQQKPGQAPRLLIYFTSKKPSGVPDRFSGSGSGTDFTLKISRVEAEDVGVYYCQTYAAPLGPMFGQGTKLEIKRTVAAPSVFIFPPSDEQLKSGTASVVCLLNNFYPREAKVQWKVDNALQSGNSQESVTEQDSKDSTYSLSSTLTLSKADYEKHKVYACEVTHQGLSSPVTKSFNRGEC
notes: Heterodimerized antibody
In [1], B3 displayed a Relative binding amount of 2.6. The “Relative value to KD between G1m and hFcγRs” value in assay [2] amounted to 1; in assay [3], 15.8; in [4] it was 9.1; in assay [5], 830. For the same molecule, the “Relative value to KD between G1m and hFcRn” value with human FcRn [6] was 0.8. The equilibrium dissociation constant (Kd) came out at 1600 nM with human FcRn [7]; 0.047 nM in assay [8]; 67 nM in assay [9]; 2.1 nM in [10]; 160 nM in [11]; 1.1 nM in assay [12]. The Binding amount in [13] turned out to be 0.03.
